Like-named read-outs stand apart in the source and are kept apart here. Bridges are numbered along the chain shown (N, C = ends). Where no end group is shown, it is not given here. [ ]: non-standard residue; d: D form. The star is where a group is joined. FITC = O=C1OC2(c3ccc(O)cc3Oc3cc(O)ccc32)c2ccc(NC(=S)*)cc21; S5 = C=CCCC[C@](C)(N)C(=O)O; Nle = CCCC[C@H](N)C(=O)O
Columns and labels:
[1] = target: T1, C-terminal His-tagged EED (His-EED) (UniProt O75530 1-441); experiment: fluorescence polarization
T1 sequence (O75530 whole entry): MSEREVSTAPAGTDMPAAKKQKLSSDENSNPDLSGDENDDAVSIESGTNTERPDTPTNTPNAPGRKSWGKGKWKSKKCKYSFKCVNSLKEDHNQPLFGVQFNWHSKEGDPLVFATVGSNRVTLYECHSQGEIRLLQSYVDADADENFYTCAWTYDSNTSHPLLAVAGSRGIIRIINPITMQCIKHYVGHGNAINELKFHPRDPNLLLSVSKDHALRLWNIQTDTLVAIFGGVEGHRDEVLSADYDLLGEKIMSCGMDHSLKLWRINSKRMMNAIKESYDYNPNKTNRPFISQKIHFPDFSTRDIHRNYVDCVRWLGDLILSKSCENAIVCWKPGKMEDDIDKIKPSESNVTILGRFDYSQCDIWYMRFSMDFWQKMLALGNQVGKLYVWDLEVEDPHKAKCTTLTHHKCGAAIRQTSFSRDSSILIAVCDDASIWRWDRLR

[2] = target: purified EED (Example 6) (UniProt O75530 1-441); experiment: competitive fluorescence polarization; competition against FITC-EZH2(42-68)
purified EED (Example 6), sequence (O75530 whole entry): as above

[3] = target: T1, C-terminal His-tagged EED (His-EED); experiment: fluorescence polarization; remark: listed apart in the source

| Binder | Kd [3] [nM] | further results |
| --- | --- | --- |
| {FITC}-FSSNR[S5]KIL[S5]RTQILNQEWKQRRIQPV (staple 6-10) [FITC-SAH-EZH2A(42-68)E54Q] | – | Kd [1]: 320 nM |
| Ac-FSSNR[S5]KIL[S5]RT[S5]ILN[S5]EWKQRRIQPV (staple 6-10, 13-17) [acetyl-SAH-EZH2(42-68)AC] | – | Kd [2]: 650 nM |
| {FITC}-FSSNR[S5]KIL[S5]RTQILNQQWKQRRIQPV (staple 6-10) [FITC-SAH-EZH2A(42-68)E54Q/E59Q] | – | Kd [1]: > 10000 nM |
| {FITC}-FSSNRQKILERT[S5]ILN[S5]EWKQRRIQPV (staple 13-17) [FITC-SAH-EZH2B(42-68)] | 528 | – |
| {FITC}-S[Nle]FSSNR[S5]KIL[S5]RTEILNQEWKQRRIQPV (staple 8-12) [FITC-SAH-EZH2A(40-68)] | 333 | – |
| {FITC}-FSSNR[S5]KIL[S5]RTEILNQEWKQRRIQPV (staple 6-10) [FITC-SAH-EZH2A(42-68)] | 468 | – |
| {FITC}-S[Nle]FSSNRQKILERT[S5]ILN[S5]EWKQRRIQPV (staple 15-19) [FITC-SAH-EZH2B(40-68)] | 264 | – |
| Ac-FSSNR[S5]KIL[S5]RTQILNQEWKQRRIQPV (staple 6-10) [acetyl-SAH-EZH2] | – | Kd [2]: 1130 nM |
